The assay addresses T1, BSA (bovine, UniProt P02769).
T1 construct: also called bovine serum albumin
Nature of the assay: ELISA, BSA as control antigen; detection with anti-human IgG HRP. In general terms: ELISA stands for enzyme-linked immunosorbent assay.

T1 sequence (P02769 25-607 limits assumed): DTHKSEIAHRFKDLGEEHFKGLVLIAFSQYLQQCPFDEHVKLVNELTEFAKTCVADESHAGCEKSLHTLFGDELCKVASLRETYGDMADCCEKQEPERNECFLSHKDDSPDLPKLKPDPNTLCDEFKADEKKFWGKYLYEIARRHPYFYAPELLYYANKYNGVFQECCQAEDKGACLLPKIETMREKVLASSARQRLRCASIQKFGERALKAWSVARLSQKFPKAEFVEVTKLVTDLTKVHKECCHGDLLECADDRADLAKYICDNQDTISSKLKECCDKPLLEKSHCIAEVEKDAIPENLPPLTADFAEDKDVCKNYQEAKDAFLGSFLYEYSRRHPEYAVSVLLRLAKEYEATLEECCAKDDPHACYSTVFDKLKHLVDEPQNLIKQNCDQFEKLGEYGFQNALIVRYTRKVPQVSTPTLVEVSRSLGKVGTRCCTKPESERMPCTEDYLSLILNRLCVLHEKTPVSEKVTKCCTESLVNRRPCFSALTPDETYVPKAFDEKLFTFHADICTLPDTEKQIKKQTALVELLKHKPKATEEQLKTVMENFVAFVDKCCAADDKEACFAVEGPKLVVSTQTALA

B1: LC10 YTE (antibody corresponding to mAb LC10 containing an Fc variant (antibody, V domains shown)
VH: EVQLVESGGGLVQPGGSLRLSCAASGFTFSSHDMHWVRQATGKGLEWVSGIGTAGDTYYPDSVKGRFTISRENAKNSLYLQMNSLRAGDTAVYYCARDRYSPTGHYYGMDVWGQGTTVTVSS
VL: DIQMTQSPSTLSASVGDRVTITCRASQSISSWLAWYQQKPGKAPKLLIYKASSLESGVPSRFSGSGSGTEFTLTISSLQPDDFATYYCKQYADYWTFGQGTKVEIKR
notes: also called LC10-IgG1-YTE; MEDI4893
Regarding B1, the binding result was “no binding”.

For the origin of these results see patent US20140072577A1 (AstraZeneca / MedImmune, published 2014).
